Laboratory results as given in patent publication US20220153832A1 (PIONYR IMMUNOTHERAPEUTICS, published 2022).
Blank lines part the entries; values can stand above or below the binder they belong to.

What was measured:
[1] = target: T1, Mouse MARCO, full length, on cells (mouse, UniProt Q60754 1-518); test: competition with AF488 E. coli binding to muMARCO 293T cells, flow cytometry
T1 construct: whole, on cells; the cell type is named under assay; also called muMARCO; MuMARCO
T1 sequence (looked up): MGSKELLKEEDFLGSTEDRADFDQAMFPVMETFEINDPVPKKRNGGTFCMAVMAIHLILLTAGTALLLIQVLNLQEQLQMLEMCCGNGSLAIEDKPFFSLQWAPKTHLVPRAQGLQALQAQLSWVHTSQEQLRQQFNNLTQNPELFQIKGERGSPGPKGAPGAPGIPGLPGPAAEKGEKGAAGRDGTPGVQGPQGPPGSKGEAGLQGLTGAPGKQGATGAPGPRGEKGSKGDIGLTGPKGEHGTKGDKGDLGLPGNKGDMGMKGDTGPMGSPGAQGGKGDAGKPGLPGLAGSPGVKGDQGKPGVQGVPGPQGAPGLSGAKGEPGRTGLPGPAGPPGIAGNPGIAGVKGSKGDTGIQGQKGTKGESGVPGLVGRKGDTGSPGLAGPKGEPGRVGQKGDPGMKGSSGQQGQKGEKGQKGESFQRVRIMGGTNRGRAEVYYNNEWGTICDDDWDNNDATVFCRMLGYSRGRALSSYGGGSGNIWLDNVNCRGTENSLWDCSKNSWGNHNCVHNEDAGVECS

[2] = target: T1, Mouse MARCO, full length, on cells; test: flow cytometry, 293T (MuMARCO)
[3] = target: T2, Human Macrophage Receptor with Collagenous Structure (MARCO), full length, on cells (human, UniProt Q9UEW3 1-520); test: flow cytometry, cells overexpressing human MARCO; hu (first of hu/cyn)
T2 construct: the cell type is named under assay; also called huMARCO; HuMARCO
T2 sequence: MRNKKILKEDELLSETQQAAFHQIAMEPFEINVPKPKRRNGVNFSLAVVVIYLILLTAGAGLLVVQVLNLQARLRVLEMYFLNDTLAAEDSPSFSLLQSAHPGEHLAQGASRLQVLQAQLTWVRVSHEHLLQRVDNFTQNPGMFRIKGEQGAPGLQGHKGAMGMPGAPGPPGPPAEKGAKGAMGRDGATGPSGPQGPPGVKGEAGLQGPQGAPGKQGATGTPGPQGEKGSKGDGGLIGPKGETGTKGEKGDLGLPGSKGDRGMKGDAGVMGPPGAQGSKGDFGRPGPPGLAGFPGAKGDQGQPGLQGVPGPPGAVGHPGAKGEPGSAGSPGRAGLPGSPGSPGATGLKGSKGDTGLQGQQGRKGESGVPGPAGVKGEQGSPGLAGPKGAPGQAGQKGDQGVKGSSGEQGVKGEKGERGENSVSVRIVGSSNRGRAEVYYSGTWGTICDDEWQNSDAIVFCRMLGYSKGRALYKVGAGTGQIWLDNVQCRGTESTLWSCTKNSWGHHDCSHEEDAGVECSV

[4] = target: T3, N-terminally polyhistidine tagged human MARCO ECD (147-520), recombinant (human, UniProt Q9UEW3 147-520); test: ELISA on hMARCO ECD with 2 mM Ca2+, A450-A620
T3 construct: also called PI-RG-3000; recombinant human MARCO; not shown: N-terminal polyhistidine tag
T3 sequence: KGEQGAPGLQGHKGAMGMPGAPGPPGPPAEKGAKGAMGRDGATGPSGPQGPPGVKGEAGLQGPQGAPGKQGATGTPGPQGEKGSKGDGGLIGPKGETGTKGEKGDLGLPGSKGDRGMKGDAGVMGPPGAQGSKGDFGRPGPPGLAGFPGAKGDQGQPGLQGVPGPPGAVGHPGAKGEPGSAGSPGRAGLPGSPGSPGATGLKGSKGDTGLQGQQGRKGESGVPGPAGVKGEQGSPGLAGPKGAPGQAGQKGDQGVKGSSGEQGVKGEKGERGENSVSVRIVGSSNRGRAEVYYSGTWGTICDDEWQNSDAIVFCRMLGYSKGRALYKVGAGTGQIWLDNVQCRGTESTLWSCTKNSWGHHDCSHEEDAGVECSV

[5] = target: T3, N-terminally polyhistidine tagged human …; test: Biacore; isomerization/fragmentation stress sample
[6] = target: T4, recombinant cynomolgus MARCO protein (cynomolgus, UniProt A0A2K5X0Z2 65-519); test: SPR, multi cycle kinetics, cyno MARCO
T4 construct: Construct not described; also called cyno MARCO; cynoMARCO
T4 sequence: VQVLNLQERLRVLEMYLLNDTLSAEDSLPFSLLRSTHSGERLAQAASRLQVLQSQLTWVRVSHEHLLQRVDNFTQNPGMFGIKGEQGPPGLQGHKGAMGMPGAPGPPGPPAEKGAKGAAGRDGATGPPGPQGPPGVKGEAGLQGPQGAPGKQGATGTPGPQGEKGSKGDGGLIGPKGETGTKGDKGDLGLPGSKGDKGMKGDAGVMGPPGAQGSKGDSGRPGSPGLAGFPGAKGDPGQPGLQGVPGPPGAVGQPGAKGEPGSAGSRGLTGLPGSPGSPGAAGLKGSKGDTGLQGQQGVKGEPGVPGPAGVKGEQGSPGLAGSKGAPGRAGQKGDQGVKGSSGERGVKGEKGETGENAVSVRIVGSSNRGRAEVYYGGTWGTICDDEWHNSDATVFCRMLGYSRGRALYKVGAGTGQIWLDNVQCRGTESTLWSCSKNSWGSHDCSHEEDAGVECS

EC50 [1]: 0.85 nM
EC50 [2]: 1.52 nM
B1: PI-HX-3061 (antibody, rat IgG2a)
heavy: EVQLVESGGGLVQPGSSLKLSCVASKFTFSNYGMNWIRQAPKKGLEWIALIYYNSNNKYYADSVKGRFTISRDNSKNTLYLEMNSLRSEDTAMYYCAKSLTGGSDYFDSWGQGVMVTVSSAETTAPSVYPLAPGTALKSNSMVTLGCLVKGYFPEPVTVTWNSGALSSGVHTFPAVLQSGLYTLTSSVTVPSSTWPSQTVTCNVAHPASSTKVDKKIVPRNCGGDCKPCICTGSEVSSVFIFPPKPKDVLTITLTPKVTCVVVDISQDDPEVHFSWFVDDVEVHTAQTRPPEEQFNSTFRSVSELPILHQDWLNGRTFRCKVTSAAFPSPIEKTISKPEGRTQVPHVYTMSPTKEEMTQNEVSITCMVKGFYPPDIYVEWQMNGQPQENYKNTPPTMDTDGSYFLYSKLNVKKEKWQQGNTFTCSVLHEGLHNHHTEKSLSHSP
light: DVQMTQSPSYLAASPGESVSISCKASKSIGTFLAWYQEKPEKTNKLLIYSGSTLQSGTPSRFSGSGSGTDFTLTIRNLEPEDFAVYYCQQHDEYPFTFGSGTKLEIKRADAAPTVSIFPPSTEQLATGGASVVCLMNNFYPRDISVKWKIDGTERRDGVLDSVTDQDSKDSTYSMSSTLSLTKADYESHNLYTCEVVHKTSSSPVVKSFNRNEC
notes: Parental rat hybridoma, rat IgG2a; cross reactive with human and mouse MARCO

EC50 [3]: 0.798 nM
EC50 (read off the curve) [4]: ~1 nM
Kd [5]: 1.24 nM
B2: PI-3015-AB (antibody, human IgG1, kappa)
heavy: not shown
light: DIQMTQSPSSLSASVGDRVTITCRASEGISNDLAWYQQKPGKAPKLLIYAASRLQSGVPSRFSGSGSGTDYTLTISSMQPEDFATYYCQQSYKYPLTFGQGTKLEIKRTVAAPSVFIFPPSDEQLKSGTASVVCLLNNFYPREAKVQWKVDNALQSGNSQESVTEQDSKDSTYSLSSTLTLSKADYEKHKVYACEVTHQGLSSPVTKSFNRGEC

Kd [6]: 0.109 nM
B3: PI-HX-3031 (antibody)
heavy: QVQLKESGPGLVQPSQTLSLTCTVSGFSLTSYHVSWVRQPPGKGLEWMGAIWTGGSIAYNSLLKSRLSISRDTSKSQVFLKMNSLQTEDTATYYCARDLSDYYSSYTSFDYWGQGVMVTVSTAETTAPSVYPLAPGTALKSNSMVTLGCLVKGYFPEPVTVTWNSGALSSGVHTFPAVLQSGLYTLTSSVTVPSSTWSSQAVTCNVAHPASSTKVDKKIVPRECNPCGCTGSEVSSVFIFPPKTKDVLTITLTPKVTCVVVDISQNDPEVRFSWFIDDVEVHTAQTHAPEKQSNSTLRSVSELPIVHRDWLNGKTFKCKVNSGAFPAPIEKSISKPEGTPRGPQVYTMAPPKEEMTQSQVSITCMVKGFYPPDIYTEWKMNGQPQENYKNTPPTMDTDGSYFLYSKLNVKKETWQQGNTFTCSVLHEGLHNHHTEKSLSHSP
light: DIQMTQSPASLSTSLGETVSIECLASEGISNDLAWYQQKSGKSPQLLIYAASRLQDGVPSRFSGSGSGTRYSLKISGMQPEDEADYFCQQSYKYPLTFGSGTKLEIKRADAAPTVSIFPPSTEQLATGGASVVCLMNNFYPRDISVKWKIDGTERRDGVLDSVTDQDSKDSTYSMSSTLSLTKADYESHNLYTCEVVHKTSSSPVVKSFNRNEC
notes: Parental rat hybridoma, rat IgG2a
